Test results published in publication PMC4513104, “Fatty Acid-binding Proteins Interact with Comparative Gene Identification-58 Linking Lipolysis with Lipid Ligand Shuttling*” (The Journal of Biological Chemistry, 2015).

Tests used:
Gst-Cgi-58 = target: T1, Gst-Cgi-58 (mouse, UniProt Q9DBL9 1-351, Sulfo-SBED cross-linker covalently linked (label transfer); fluorescent label NT-495 by NHS coupling (microscale thermophoresis)); assay: MST; Gst-tagged Cgi-58 labelled with NT-495 (NHS coupling) at constant amount; unlabeled Strep-tagged A-Fabp 8 nM to 250 μM; 100 mM Tris, pH 8.0, 150 mM NaCl, 1 mM EDTA, 0.05% Tween 20; Monolith NT.115, duplicate; settings: both partners purified
T1 construct: comparative gene identification-58 (Cgi-58), mouse; also called Gst-tagged Cgi-58; mouse Gst-Cgi-58
T1 sequence (looked up): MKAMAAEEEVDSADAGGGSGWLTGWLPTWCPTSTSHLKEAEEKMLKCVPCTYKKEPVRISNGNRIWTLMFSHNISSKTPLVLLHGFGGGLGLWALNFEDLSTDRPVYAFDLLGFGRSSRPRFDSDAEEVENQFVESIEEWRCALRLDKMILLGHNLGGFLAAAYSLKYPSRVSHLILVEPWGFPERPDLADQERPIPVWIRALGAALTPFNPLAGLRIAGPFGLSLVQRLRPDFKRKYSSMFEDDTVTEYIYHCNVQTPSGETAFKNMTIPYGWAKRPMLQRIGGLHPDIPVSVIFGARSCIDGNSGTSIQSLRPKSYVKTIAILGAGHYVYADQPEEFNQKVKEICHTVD

m^solCgi-58 = target: T2, m^solCgi-58 (mouse, UniProt Q9DBL9 2-351, S239E); assay: NMR titration; 1H-15N HSQC of 50 μM 15N labeled A-Fabp with 0, 10, 25, 50, 100 and 200 μM m^solCgi-58; 15 mM Na2HPO4/KH2PO4, pH 7.0, 300 mM NaCl, 1 mM DTT, 1 mM EDTA; 298 K; settings: both partners purified
T2 construct: mouse Cgi-58, Lys-2–Asp-351, with S239E; preceded by a TEV protease cleavage site and cleaved by TEV; used for NMR experiments only; also called mCgi-58^S239E; cgi-58_S239E variant with increased solubility; source: E. coli BL21(DE3), co-expressed with the chaperone Tig, purified (His-Trap, TEV cleavage, Superdex 200); not shown: His tag, N-terminal, cleaved; SUMO, N-terminal, cleaved
T2 sequence (looked up): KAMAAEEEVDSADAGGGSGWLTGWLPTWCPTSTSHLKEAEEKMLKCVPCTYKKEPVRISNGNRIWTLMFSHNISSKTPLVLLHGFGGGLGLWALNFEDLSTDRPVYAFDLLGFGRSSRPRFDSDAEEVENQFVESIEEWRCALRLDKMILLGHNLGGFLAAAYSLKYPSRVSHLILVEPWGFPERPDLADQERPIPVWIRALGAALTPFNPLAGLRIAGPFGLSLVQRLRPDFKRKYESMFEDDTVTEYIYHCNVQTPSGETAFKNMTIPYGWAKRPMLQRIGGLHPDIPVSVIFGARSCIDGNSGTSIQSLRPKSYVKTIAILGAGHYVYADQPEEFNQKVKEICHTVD

- Kd (Gst-Cgi-58): 192 ± 22 µM
- binding result (m^solCgi-58): binds
B1: Strep-tagged A-Fabp (natural protein, human, UniProt P15090 1-132, looked up)
chain: MCDAFVGTWKLVSSENFDDYMKEVGVGFATRKVAGMAKPNMIISVNGDVITIKSESTFKNTEISFILGQEFDEVTADDRKVKSTITLDGGVLVHVQKWDGKSTTIKRKREDDKLVVECVMKGVTSTRVYERA
modifications: 15N (and 13C) labelled in the NMR experiments
notes: residue numbers start with methionine as the first amino acid; vector pASK-IBA5plus; also called Strep-A-Fabp; source: E. coli BL21(DE3), purified (Strep-Tactin)
